# From publication doi:10.64898/2025.12.19.695307 (bioRxiv, 2025)
# Where a chain is given by its changes, count along the chain named.
# B1: ZL525 (antibody, V domains shown)
# V domain 1: QVQLVQSGAEVKKPGSSMKVSCQASGGTFSSHPISWIRQAPGQGLEWMGRIIPIAGMTDYGQKFQGRITITADTSTSTSYVELRGLRSQDTAFYYCAKDVGYSDYGSAYYFHTWGQGTLITVSS
# V domain 2: QSVLTQPPSVSGAPGQRVTISCTGSNSNIGAGYDVHWYQQLPGTAPKLLIYRNNKRPSGVPDRFSGSKSDTSASLAITGLQAEDEAHYYCQSFDSSLGGSLFGGGTKLAVL
# B2: C092 (antibody, V domains shown)
# VH: QVQLVQSGAEVKKPGSSVKVSCKASGGSFTNHFISWVRQAPGQGLEWMGRIIPILGTANYAQNFQGRVMMTADKSTSTAYMELSSLRSEDTAVYYCARDSGYSGYGSTYYMDVWGKGTTVTVSS
# VL: QSVLTQPPSVSGAPGQRVTISCTGSNSNIGAGYDVHWYQQLPGAAPKLLIYGNNNRPSGVPDRFSGSKSDTSASLAITGLQVEDEADYYCQSYDSSLSDSVFGSGTKVTVL
# B3: BD56-597 (antibody, V domains shown)
# VH: QVQLVQSGAEVKKPGSSVKVSCKASGGTFSTYPISWVRQAPGQGVEWMGAIIPILGTTDYAQIFQGRVTITADKSTSTAYMELSSLRPEDTAVYYCARERGYSGYGAAYYFDSWGQGTLVTVSS
# VL: B2 VL with N26D, A44T, G52V, N54I, D70A, V82A, D99G, S100V, S104G, V108L
# B4: C807 (antibody, V domains shown)
# VH: QVQLVQSGAEAKKPGSSVKVSCKASGGTFKSYIINWVRQAPGQGLEWMGEIIPIFGTANYAQKFQGRVTSTADESTSTAYMELSSLKSEDTAVYYCARGRGYSGYGASYYFDYWGQGTLVTVSS
# VL: B2 VL with A44T, G52A, N54S, D70G, V82A, S96G, D99G, S104G, V108L
# B5: BD56-104 (antibody, V domains shown)
# VH: QVQLVQSGAEVKTPGSSVKVSCKASGGTFGSHSITWVRQAPGQGLEWMGRVIPILGIPDFAESFQGRVAITADRSTSTAHMELSRLRSEDTAVYYCARDVGYSGSGSSNYFDSWGQGTLVTVSS
# VL: QSVLTQPPSVSGAPGQRVTISCTGSNSNIGAGYDVHWYRQLPGTAPKLLIYVNNNRPSGVPDRFSGSRSGASASLAITGLQAEDEAEYYCQSYDSSLSGSIFGGGTKLTVL
# B6: C092-germline HCDR1 (antibody, V domains shown)
# VH: B2 VH with S28T, T30S, N31S, H32Y, F33A
# VL: B2 VL
# B7: R1-32-AAM (R1-32-artificial-affinity-matured) (antibody, V domains shown)
# VH: EVQLVESGAEVKKPGSSVKVSCKASGGTFSSYFISWVRQAPGQGLEWMGGIIPILGIADYAEKFQGRVTITADKSTSTAYMELSSLRSEDTAVYYCARENGYSGYGAAYNFDLWGRGTLVTVSS
# VL: B2 VL with N26D, A44T, N54S, V82A, S104G, V108L
# B8: R1-32 (antibody, V domains shown)
# VH: B7 VH with F33A, D59N, E62Q, Y109A
# VL: B2 VL with N26S, A44T, N54S, D70G, V82A, D99G, S104G, V108L
# B9: BD56-104+D59NH+E62QH (antibody, V domains shown)
# VH: B5 VH with D59N, E62Q
# VL: B5 VL
# Target: T1, SARS-CoV-2 KP.3 RBD (SARS-CoV-2 Omicron KP.3, strain, N354 glycosylation)
# Assay: cell-based or functional assay
row,Binder,"IC50 of neutralisation of authentic KP.3 virus (focus reduction, Vero E6) [µg/mL]"
1,B1,0.107

# Target: SARS-CoV-2 Alpha (B.1.1.7) RBD (SARS-CoV-2 Alpha (B.1.1.7), strain)
# Assay: BLI
row,Binder,Kd [nM]
1,B2,< 0.3
2,B3,< 0.3
3,B4,< 0.3
4,B5,< 0.3

# Target: SARS-CoV-2 Omicron BA.1.1 RBD (SARS-CoV-2 Omicron BA.1.1, strain)
# Assay: BLI
row,Binder,Kd [nM]
1,B2,< 0.3
2,B3,< 0.3
3,B4,< 0.3
4,B5,< 0.3

# Target: SARS-CoV-2 Omicron BA.4/5 RBD (SARS-CoV-2 Omicron BA.4/5, L452R)
# Assay: BLI
Binder,Kd [nM],fold reduction in binding relative to C092 [fold],fold enhancement of affinity relative to R1-32 [fold],fold reduction in binding relative to BD56-104 [fold]
B2,< 2.1,–,–,–
B6,–,~10,–,–
B3,< 2.1,–,–,–
B1,< 0.71,–,–,–
B7,–,–,~100,–
B4,< 2.1,–,–,–
B8,> 55,–,–,–
B5,< 2.1,–,–,–
B9,–,–,–,~100

# Target: SARS-CoV-2 Omicron BF.7 RBD (SARS-CoV-2 Omicron BF.7, L452R)
# Assay: BLI
Binder,Kd [nM],fold enhancement of affinity relative to R1-32 [fold]
B2,< 2.1,–
B3,< 2.1,–
B7,–,~100
B4,< 2.1,–
B8,> 55,–
B5,< 2.1,–

# Target: SARS-CoV-2 Omicron BA.3 RBD (SARS-CoV-2 Omicron BA.3, strain)
# Assay: BLI
row,Binder,Kd [nM]
1,B2,< 0.3
2,B3,< 0.3
3,B4,< 0.3
4,B5,< 0.3

# Target: SARS-CoV-2 Omicron BA.2.13 RBD (SARS-CoV-2 Omicron BA.2.13, L452M)
# Assay: BLI
row,Binder,Kd [nM]
1,B2,< 2.1
2,B3,< 2.1
3,B4,< 2.1
4,B8,> 55
5,B5,< 2.1

# Target: T1, SARS-CoV-2 KP.3 RBD
# Assay: BLI
row,Binder,Kd [nM]
1,B1,< 1.11

# Target: SARS-CoV-2 WT S-trimer (SARS-CoV-2 ancestral (WT), UniProt P0DTC2, deletion of amino acids PRRA (681-684))
# Assay: BLI
row,Binder,binding result
1,B2,binds
2,B3,binds
3,B4,binds
4,B5,binds

# Target: SARS-CoV-2 Kappa (B.1.617.1) RBD (SARS-CoV-2 Kappa (B.1.617.1), L452R)
# Assay: BLI
Binder,Kd [nM],fold reduction in binding relative to C092 [fold],fold enhancement of affinity relative to R1-32 [fold]
B2,< 2.1,–,–
B6,–,~10,–
B3,< 2.1,–,–
B1,< 0.71,–,–
B7,–,–,~100
B4,< 2.1,–,–
B8,> 55,–,–
B5,< 2.1,–,–

# Target: SARS-CoV-2 JD.1.1 RBD (SARS-CoV-2 Omicron JD.1.1, strain)
# Assay: BLI
row,Binder,Kd [nM]
1,B1,< 1.11

# Target: SARS-CoV-2 Omicron BA.2.12.1 RBD (SARS-CoV-2 Omicron BA.2.12.1, L452Q)
# Assay: BLI
row,Binder,Kd [nM]
1,B2,< 2.1
2,B3,< 2.1
3,B4,< 2.1
4,B8,> 55
5,B5,< 2.1

# Target: SARS-CoV-2 Omicron XBB.1.5 RBD (SARS-CoV-2 Omicron XBB.1.5, F490S)
# Assay: BLI
row,Binder,Kd [nM]
1,B2,< 4.5
2,B3,< 4.5
3,B1,< 0.71
4,B4,< 4.5
5,B5,< 4.5

# Target: SARS-CoV-2 JN.1 RBD (SARS-CoV-2 Omicron JN.1, strain, N354 glycosylation)
# Assay: BLI
row,Binder,Kd [nM]
1,B1,< 1.11

# Target: SARS-CoV-2 Delta (B.1.617.2) RBD (SARS-CoV-2 Delta (B.1.617.2), L452R)
# Assay: BLI
Binder,Kd [nM],fold reduction in binding relative to C092 [fold],fold enhancement of affinity relative to R1-32 [fold]
B2,< 2.1,–,–
B6,–,~10,–
B3,< 2.1,–,–
B1,< 0.71,–,–
B7,–,–,~100
B4,< 2.1,–,–
B8,> 55,–,–
B5,< 2.1,–,–

# Target: SARS-CoV-2 Omicron BA.1 RBD (SARS-CoV-2 Omicron BA.1, strain)
# Assay: BLI
row,Binder,Kd [nM]
1,B2,< 0.3
2,B3,< 0.3
3,B4,< 0.3
4,B5,< 0.3

# Target: SARS-CoV-2 Omicron EG.5.1 RBD (SARS-CoV-2 Omicron EG.5.1, F490S)
# Assay: BLI
row,Binder,Kd [nM]
1,B2,< 4.5
2,B3,< 4.5
3,B1,< 0.71
4,B4,< 4.5
5,B5,< 4.5

# Target: SARS-CoV-2 Omicron EG.5 RBD (SARS-CoV-2 Omicron EG.5, R346T | F490S)
# Assay: BLI
row,Binder,Kd [nM]
1,B2,< 4.5
2,B3,< 4.5
3,B4,< 4.5
4,B5,< 4.5

# Target: SARS-CoV-2 Omicron BQ.1.1 RBD (SARS-CoV-2 Omicron BQ.1.1, R346T | L452R)
# Assay: BLI
Binder,Kd [nM],fold enhancement of affinity relative to R1-32 [fold]
B2,< 2.1,–
B3,< 2.1,–
B1,< 0.71,–
B7,–,~100
B4,< 2.1,–
B8,> 55,–
B5,< 2.1,–

# Target: SARS-CoV-2 Omicron XBB RBD (SARS-CoV-2 Omicron XBB, F490S)
# Assay: BLI
row,Binder,Kd [nM]
1,B2,< 4.5
2,B3,< 4.5
3,B4,< 4.5
4,B5,< 4.5

# Target: SARS-CoV-2 Omicron BA.2.75 RBD (SARS-CoV-2 Omicron BA.2.75, strain)
# Assay: BLI
row,Binder,Kd [nM]
1,B2,< 0.3
2,B3,< 0.3
3,B4,< 0.3
4,B5,< 0.3

# Target: SARS-CoV-2 Gamma (P.1) RBD (SARS-CoV-2 Gamma (P.1), strain)
# Assay: BLI
row,Binder,Kd [nM]
1,B2,< 0.3
2,B3,< 0.3
3,B4,< 0.3
4,B5,< 0.3

# Target: SARS-CoV-2 BA.2.86 RBD (SARS-CoV-2 Omicron BA.2.86, strain, N354 glycosylation)
# Assay: BLI
row,Binder,Kd [nM]
1,B1,< 1.11

# Target: SARS-CoV-2 HK.3 RBD (SARS-CoV-2 Omicron HK.3, strain)
# Assay: BLI
row,Binder,Kd [nM]
1,B1,< 1.11

# Target: SARS-CoV-2 Beta (B.1.351) RBD (SARS-CoV-2 Beta (B.1.351), strain)
# Assay: BLI
row,Binder,Kd [nM]
1,B2,< 0.3
2,B3,< 0.3
3,B4,< 0.3
4,B5,< 0.3

# Target: SARS-CoV-2 Omicron BA.2 RBD (SARS-CoV-2 Omicron BA.2, strain)
# Assay: BLI
row,Binder,Kd [nM]
1,B2,< 0.3
2,B3,< 0.3
3,B4,< 0.3
4,B5,< 0.3
